{"source": "the supplement of paper PMC9112550", "about": "“Optimization of the antimicrobial peptide Bac7 by deep mutational scanning” (BMC Biology, 2022);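 further: peptides expressed intracellularly from a pBAD plasmid library in pooled LB shake-flask culture, induced with 0.3% L-arabinose, DNA abundance read by NGS, three biological replicates, DESeq2 with apeglm shrinkage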", "data": [{"system": "Escherichia coli TOP10", "experiment": "shrunken log2 fold change of peptide-encoding DNA abundance (4.5 h post-induction vs induction); higher = less antimicrobial activity (less host growth inhibition)", "conditions": "time post-induction: 4.5 h; library: site-saturation at positions 5, 18, 19, 20", "values": [{"sequence": "RRIRPRPPRLPRPRPRPQARPRP", "shrunken log2 fold change": 0.208}, {"sequence": "RRIRTRPPRLPRPRPRPAWWPRP", "shrunken log2 fold change": 0.615}, {"sequence": "RRIRWRPPRLPRPRPRPSEDPRP", "shrunken log2 fold change": 0.145}, {"sequence": "RRIRVRPPRLPRPRPRPITEPRP", "shrunken log2 fold change": -0.0116}, {"sequence": "RRIRVRPPRLPRPRPRPTSIPRP", "shrunken log2 fold change": -0.201}, {"sequence": "RRIRRRPPRLPRPRPRPFVTPRP", "shrunken log2 fold change": -0.0614}, {"sequence": "RRIRQRPPRLPRPRPRPGNRPRP", "shrunken log2 fold change": -0.0286}, {"sequence": "RRIRARPPRLPRPRPRPHKQPRP", "shrunken log2 fold change": -0.0718}, {"sequence": "RRIRHRPPRLPRPRPRPKRLPRP", "shrunken log2 fold change": 0.0708}, {"sequence": "RRIRKRPPRLPRPRPRPMFTPRP", "shrunken log2 fold change": -0.0707}, {"sequence": "RRIRTRPPRLPRPRPRPEAVPRP", "shrunken log2 fold change": -0.0221}, {"sequence": "RRIRRRPPRLPRPRPRPKLEPRP", "shrunken log2 fold change": 0.297}, {"sequence": "RRIRVRPPRLPRPRPRPWYWPRP", "shrunken log2 fold change": -0.332}, {"sequence": "RRIRVRPPRLPRPRPRPWEHPRP", "shrunken log2 fold change": 0.0927}, {"sequence": "RRIRGRPPRLPRPRPRPPDQPRP", "shrunken log2 fold change": 1.14}, {"sequence": "RRIRHRPPRLPRPRPRPGDYPRP", "shrunken log2 fold change": -0.212}, {"sequence": "RRIRFRPPRLPRPRPRPIANPRP", "shrunken log2 fold change": -0.0564}, {"sequence": "RRIRERPPRLPRPRPRPADAPRP", "shrunken log2 fold change": 0.117}, {"sequence": "RRIRARPPRLPRPRPRPAGNPRP", "shrunken log2 fold change": 0.129}, {"sequence": "RRIRLRPPRLPRPRPRPSYRPRP", "shrunken log2 fold change": -0.242}, {"sequence": "RRIRERPPRLPRPRPRPTFEPRP", "shrunken log2 fold change": 0.144}, {"sequence": "RRIRDRPPRLPRPRPRPWYPPRP", "shrunken log2 fold change": -0.0798}, {"sequence": "RRIRSRPPRLPRPRPRPAFHPRP", "shrunken log2 fold change": -0.0038}, {"sequence": "RRIRWRPPRLPRPRPRPPCRPRP", "shrunken log2 fold change": -0.0876}, {"sequence": "RRIRARPPRLPRPRPRPDMNPRP", "shrunken log2 fold change": 0.31}, {"sequence": "RRIRNRPPRLPRPRPRPQYTPRP", "shrunken log2 fold change": -0.737}, {"sequence": "RRIRARPPRLPRPRPRPSHIPRP", "shrunken log2 fold change": -0.523}, {"sequence": "RRIRYRPPRLPRPRPRPQEAPRP", "shrunken log2 fold change": -0.029}, {"sequence": "RRIRARPPRLPRPRPRPPYAPRP", "shrunken log2 fold change": 0.251}, {"sequence": "RRIRFRPPRLPRPRPRPTKIPRP", "shrunken log2 fold change": 0.359}, {"sequence": "RRIRGRPPRLPRPRPRPGDYPRP", "shrunken log2 fold change": 0.199}, {"sequence": "RRIRYRPPRLPRPRPRPEFTPRP", "shrunken log2 fold change": -0.0369}, {"sequence": "RRIRPRPPRLPRPRPRPNEQPRP", "shrunken log2 fold change": 0.062}, {"sequence": "RRIRKRPPRLPRPRPRPCSWPRP", "shrunken log2 fold change": 0.123}, {"sequence": "RRIRERPPRLPRPRPRPIWKPRP", "shrunken log2 fold change": -0.644}, {"sequence": "RRIRQRPPRLPRPRPRPVCGPRP", "shrunken log2 fold change": 0.205}, {"sequence": "RRIRVRPPRLPRPRPRPSRHPRP", "shrunken log2 fold change": -0.0783}, {"sequence": "RRIRSRPPRLPRPRPRPYIRPRP", "shrunken log2 fold change": -0.0533}, {"sequence": "RRIRVRPPRLPRPRPRPAYPPRP", "shrunken log2 fold change": -0.179}, {"sequence": "RRIRCRPPRLPRPRPRPDWVPRP", "shrunken log2 fold change": 0.0222}, {"sequence": "RRIRCRPPRLPRPRPRPRNWPRP", "shrunken log2 fold change": 0.366}, {"sequence": "RRIRRRPPRLPRPRPRPRRTPRP", "shrunken log2 fold change": 0.46}, {"sequence": "RRIRQRPPRLPRPRPRPQWNPRP", "shrunken log2 fold change": -0.206}, {"sequence": "RRIRKRPPRLPRPRPRPPCSPRP", "shrunken log2 fold change": 0.202}, {"sequence": "RRIRMRPPRLPRPRPRPYKHPRP", "shrunken log2 fold change": -0.872}, {"sequence": "RRIRMRPPRLPRPRPRPDVQPRP", "shrunken log2 fold change": -0.00142}, {"sequence": "RRIRYRPPRLPRPRPRPDDFPRP", "shrunken log2 fold change": -0.0153}, {"sequence": "RRIRVRPPRLPRPRPRPGGFPRP", "shrunken log2 fold change": 0.211}, {"sequence": "RRIRARPPRLPRPRPRPLMVPRP", "shrunken log2 fold change": 0.0926}, {"sequence": "RRIRMRPPRLPRPRPRPVLLPRP", "shrunken log2 fold change": 0.291}, {"sequence": "RRIRFRPPRLPRPRPRPNFSPRP", "shrunken log2 fold change": -0.283}, {"sequence": "RRIRKRPPRLPRPRPRPTVTPRP", "shrunken log2 fold change": 0.229}, {"sequence": "RRIRPRPPRLPRPRPRPLNFPRP", "shrunken log2 fold change": -0.139}, {"sequence": "RRIRHRPPRLPRPRPRPDEEPRP", "shrunken log2 fold change": -0.0946}, {"sequence": "RRIRYRPPRLPRPRPRPHCIPRP", "shrunken log2 fold change": -0.0129}, {"sequence": "RRIRIRPPRLPRPRPRPEYLPRP", "shrunken log2 fold change": 0.0178}, {"sequence": "RRIRKRPPRLPRPRPRPIMMPRP", "shrunken log2 fold change": -0.0529}, {"sequence": "RRIRQRPPRLPRPRPRPVDYPRP", "shrunken log2 fold change": 0.0237}, {"sequence": "RRIRCRPPRLPRPRPRPFHMPRP", "shrunken log2 fold change": -0.36}, {"sequence": "RRIRDRPPRLPRPRPRPFTGPRP", "shrunken log2 fold change": -0.267}, {"sequence": "RRIRDRPPRLPRPRPRPLDTPRP", "shrunken log2 fold change": 0.0803}, {"sequence": "RRIRMRPPRLPRPRPRPMPFPRP", "shrunken log2 fold change": 0.221}, {"sequence": "RRIRPRPPRLPRPRPRPSDYPRP", "shrunken log2 fold change": -0.691}, {"sequence": "RRIRCRPPRLPRPRPRPPRIPRP", "shrunken log2 fold change": 0.48}, {"sequence": "RRIRDRPPRLPRPRPRPDVAPRP", "shrunken log2 fold change": 0.0356}, {"sequence": "RRIRGRPPRLPRPRPRPCYEPRP", "shrunken log2 fold change": 0.219}, {"sequence": "RRIRQRPPRLPRPRPRPAAKPRP", "shrunken log2 fold change": -0.0272}, {"sequence": "RRIRPRPPRLPRPRPRPTICPRP", "shrunken log2 fold change": 0.172}, {"sequence": "RRIRYRPPRLPRPRPRPMGVPRP", "shrunken log2 fold change": -0.762}, {"sequence": "RRIRARPPRLPRPRPRPCVYPRP", "shrunken log2 fold change": 0.121}, {"sequence": "RRIRTRPPRLPRPRPRPGFTPRP", "shrunken log2 fold change": -0.0298}, {"sequence": "RRIRMRPPRLPRPRPRPHGIPRP", "shrunken log2 fold change": 0.0295}, {"sequence": "RRIRARPPRLPRPRPRPSDTPRP", "shrunken log2 fold change": -0.339}, {"sequence": "RRIRPRPPRLPRPRPRPGHNPRP", "shrunken log2 fold change": -0.133}, {"sequence": "RRIRFRPPRLPRPRPRPCPLPRP", "shrunken log2 fold change": -0.183}, {"sequence": "RRIRTRPPRLPRPRPRPGDGPRP", "shrunken log2 fold change": 0.393}, {"sequence": "RRIRDRPPRLPRPRPRPWIKPRP", "shrunken log2 fold change": 0.00902}, {"sequence": "RRIRGRPPRLPRPRPRPAYEPRP", "shrunken log2 fold change": 0.457}, {"sequence": "RRIRPRPPRLPRPRPRPNVSPRP", "shrunken log2 fold change": -0.0557}, {"sequence": "RRIRVRPPRLPRPRPRPDNEPRP", "shrunken log2 fold change": -0.185}, {"sequence": "RRIRMRPPRLPRPRPRPNALPRP", "shrunken log2 fold change": 0.313}, {"sequence": "RRIRVRPPRLPRPRPRPETHPRP", "shrunken log2 fold change": -0.0797}, {"sequence": "RRIRMRPPRLPRPRPRPQDQPRP", "shrunken log2 fold change": 0.228}, {"sequence": "RRIRTRPPRLPRPRPRPLHVPRP", "shrunken log2 fold change": -0.175}, {"sequence": "RRIRGRPPRLPRPRPRPCFPPRP", "shrunken log2 fold change": 0.309}, {"sequence": "RRIRARPPRLPRPRPRPMFAPRP", "shrunken log2 fold change": 0.52}, {"sequence": "RRIRRRPPRLPRPRPRPHDIPRP", "shrunken log2 fold change": -0.127}, {"sequence": "RRIRFRPPRLPRPRPRPTSIPRP", "shrunken log2 fold change": -0.296}, {"sequence": "RRIRLRPPRLPRPRPRPSIEPRP", "shrunken log2 fold change": -0.602}, {"sequence": "RRIRQRPPRLPRPRPRPYTIPRP", "shrunken log2 fold change": -0.0485}, {"sequence": "RRIRVRPPRLPRPRPRPCYVPRP", "shrunken log2 fold change": -0.0957}, {"sequence": "RRIRVRPPRLPRPRPRPFITPRP", "shrunken log2 fold change": -0.334}, {"sequence": "RRIRSRPPRLPRPRPRPRVWPRP", "shrunken log2 fold change": 0.536}, {"sequence": "RRIRHRPPRLPRPRPRPAGGPRP", "shrunken log2 fold change": -0.131}, {"sequence": "RRIRKRPPRLPRPRPRPWRSPRP", "shrunken log2 fold change": -0.0167}, {"sequence": "RRIRQRPPRLPRPRPRPRQVPRP", "shrunken log2 fold change": 0.302}, {"sequence": "RRIRERPPRLPRPRPRPLDEPRP", "shrunken log2 fold change": -0.396}, {"sequence": "RRIRHRPPRLPRPRPRPKECPRP", "shrunken log2 fold change": -0.212}, {"sequence": "RRIRPRPPRLPRPRPRPITIPRP", "shrunken log2 fold change": -0.197}, {"sequence": "RRIRGRPPRLPRPRPRPRWDPRP", "shrunken log2 fold change": 0.696}, {"sequence": "RRIRSRPPRLPRPRPRPDKSPRP", "shrunken log2 fold change": -0.2}, {"sequence": "RRIRVRPPRLPRPRPRPDSLPRP", "shrunken log2 fold change": -0.416}, {"sequence": "RRIRSRPPRLPRPRPRPDRSPRP", "shrunken log2 fold change": -0.0187}, {"sequence": "RRIRKRPPRLPRPRPRPHHTPRP", "shrunken log2 fold change": -0.254}, {"sequence": "RRIRIRPPRLPRPRPRPYEDPRP", "shrunken log2 fold change": -0.00133}, {"sequence": "RRIRPRPPRLPRPRPRPGGNPRP", "shrunken log2 fold change": -0.0884}, {"sequence": "RRIRQRPPRLPRPRPRPNCWPRP", "shrunken log2 fold change": 0.0822}, {"sequence": "RRIRGRPPRLPRPRPRPDGGPRP", "shrunken log2 fold change": 0.468}, {"sequence": "RRIRARPPRLPRPRPRPCKPPRP", "shrunken log2 fold change": -0.331}, {"sequence": "RRIRNRPPRLPRPRPRPLRYPRP", "shrunken log2 fold change": 0.0165}, {"sequence": "RRIRERPPRLPRPRPRPYSWPRP", "shrunken log2 fold change": -0.486}, {"sequence": "RRIRDRPPRLPRPRPRPHCQPRP", "shrunken log2 fold change": -0.146}, {"sequence": "RRIRCRPPRLPRPRPRPVGMPRP", "shrunken log2 fold change": 0.0711}, {"sequence": "RRIRHRPPRLPRPRPRPTRQPRP", "shrunken log2 fold change": 0.254}, {"sequence": "RRIRSRPPRLPRPRPRPMNTPRP", "shrunken log2 fold change": -0.647}, {"sequence": "RRIRTRPPRLPRPRPRPDWTPRP", "shrunken log2 fold change": -0.179}, {"sequence": "RRIRNRPPRLPRPRPRPWAMPRP", "shrunken log2 fold change": -0.175}, {"sequence": "RRIRPRPPRLPRPRPRPCNNPRP", "shrunken log2 fold change": -0.177}, {"sequence": "RRIRTRPPRLPRPRPRPQTTPRP", "shrunken log2 fold change": 0.0779}, {"sequence": "RRIRLRPPRLPRPRPRPPYYPRP", "shrunken log2 fold change": -0.292}, {"sequence": "RRIRHRPPRLPRPRPRPAWVPRP", "shrunken log2 fold change": 0.15}, {"sequence": "RRIRVRPPRLPRPRPRPKRYPRP", "shrunken log2 fold change": -0.078}, {"sequence": "RRIRYRPPRLPRPRPRPDSRPRP", "shrunken log2 fold change": -0.0156}, {"sequence": "RRIRIRPPRLPRPRPRPDCEPRP", "shrunken log2 fold change": -0.0193}, {"sequence": "RRIRRRPPRLPRPRPRPPHWPRP", "shrunken log2 fold change": 0.932}]}]}
